Results: patent US20100298542A1

What was measured:
[1] = molecular target: recombinant soluble human IL-6 receptor (SR344) (human) (UniProt P08887); experiment: SPR (Biacore T100), antibody captured on anti-IgG (γ-chain specific) F(ab')2, SR344 as analyte, pH 7.4, 37° C.
[2] = molecular target: soluble human FcRn (complex of FcRn extracellular domain and β2-microglobulin) (human) (UniProt P55899); experiment: SPR (Biacore 3000), method of Example 6: captured antibody, human FcRn as analyte, pH 6.0, steady state affinity
[3] = molecular target: soluble human FcRn (complex of FcRn extracellular domain and β2-microglobulin) (human) (UniProt P55899); experiment: SPR (Biacore 3000), antibody captured on Protein L or anti-human kappa antibody, human FcRn as analyte, pH 6.0, steady state affinity
[4] = molecular target: soluble human FcRn (complex of FcRn extracellular domain and β2-microglobulin) (human) (UniProt P55899); experiment: as above; remark: listed apart in the source

recombinant soluble human IL-6 receptor (SR344) (human), sequence (P08887 20-344): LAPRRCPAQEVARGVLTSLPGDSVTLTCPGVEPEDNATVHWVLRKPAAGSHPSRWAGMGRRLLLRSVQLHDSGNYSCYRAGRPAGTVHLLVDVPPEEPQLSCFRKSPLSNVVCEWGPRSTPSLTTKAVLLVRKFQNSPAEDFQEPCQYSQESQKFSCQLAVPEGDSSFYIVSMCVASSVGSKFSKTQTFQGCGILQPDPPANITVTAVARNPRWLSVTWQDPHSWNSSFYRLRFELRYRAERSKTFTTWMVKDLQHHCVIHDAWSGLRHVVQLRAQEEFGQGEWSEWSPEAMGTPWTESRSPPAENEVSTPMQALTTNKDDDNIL

Kd [1]: 2.7 nM
koff [1]: 0.0011 s⁻¹
kon [1]: 400000 M⁻¹ s⁻¹
Kd [2]: 1420 nM
Kd [3]: 2070 nM
Kd [4]: 1620 nM
Substance: WT-IgG1 (humanized PM-1 antibody, TOCILIZUMAB; humanized anti-human IL-6 receptor IgG1 antibody)
